One block for each substance: values may come before it.
Key:
[1] = system: CCCC(=O)Oc1ccc([N+](=O)[O-])cc1; test: GSH-conjugation activity toward model substrates, variant; assay type: biochemical, Populus trichocarpa; details: mean ± S.D., n = 3, pH 8.0
Procedure: Peroxidase activity toward hydroperoxides was measured using an NADPH coupled spectrophotometric assay ([Pégeot et al., 2014]).
The measured velocities were corrected by subtracting the rate of the spontaneous nonenzymatic reaction, and three independent experiments were performed at each substrate concentration.

[2] = system: CCCC(=O)Oc1ccc([N+](=O)[O-])cc1; test: purified protein, by the assay type; details: pH 8.0
CCCCCC(O)C=CC=O = test: purified protein, by the assay type; details: pH 8.0; 25.0 °C
S=C=NCCc1ccccc1 = test: purified protein, by the assay type; details: pH 8.0; 25.0 °C
S=C=NCc1ccccc1 = test: purified protein, by the assay type; details: pH 8.0
[3] = target: Populus trichocarpa tau glutathione transferase GSTU19 (PtGSTU19) (Populus trichocarpa); test: SEC-MALS; purified untagged recombinant protein; conditions not told in the text shown (Supplementary Figure S3B)
[4] = target: Populus trichocarpa tau glutathione transferase GSTU20 (PtGSTU20) (Populus trichocarpa); test: as above
[5] = other: PtGSTU19 Y160C, fixed saturating GSH
[6] = other: PtGSTU19 Y160F, fixed saturating GSH
[7] = other: line printed as PtGSTU19 C160Y in Table S4, fixed saturating GSH
[8] = other: PtGSTU19 Y160A, fixed saturating GSH

PtGSTU20 (Populus trichocarpa), sequence (chain, as listed by the source): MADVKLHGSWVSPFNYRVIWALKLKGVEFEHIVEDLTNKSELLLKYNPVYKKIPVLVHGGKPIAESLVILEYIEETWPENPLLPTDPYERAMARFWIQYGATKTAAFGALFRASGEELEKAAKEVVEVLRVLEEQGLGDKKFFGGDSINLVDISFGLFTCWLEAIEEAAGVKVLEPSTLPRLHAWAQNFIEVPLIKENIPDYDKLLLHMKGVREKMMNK
PtGSTU19 (Populus trichocarpa), sequence (chain, as listed by the source): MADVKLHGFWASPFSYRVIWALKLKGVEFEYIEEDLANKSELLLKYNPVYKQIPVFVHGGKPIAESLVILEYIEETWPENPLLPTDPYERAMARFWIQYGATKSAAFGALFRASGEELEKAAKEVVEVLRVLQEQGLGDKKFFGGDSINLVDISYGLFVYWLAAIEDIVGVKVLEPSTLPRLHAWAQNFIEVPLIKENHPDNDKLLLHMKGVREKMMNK
PtGSTU19Y160F (Populus trichocarpa; Y160F), sequence (chain, as listed by the source Y160F): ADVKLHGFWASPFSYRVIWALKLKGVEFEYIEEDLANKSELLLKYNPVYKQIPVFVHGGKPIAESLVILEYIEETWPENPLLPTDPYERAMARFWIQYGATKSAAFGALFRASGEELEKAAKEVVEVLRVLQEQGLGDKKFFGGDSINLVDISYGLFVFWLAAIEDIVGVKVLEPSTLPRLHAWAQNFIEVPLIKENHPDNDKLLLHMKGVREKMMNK
PtGSTU19Y160C (Populus trichocarpa; Y160C), sequence (chain, as listed by the source Y160C): as the sequence (chain, as listed by the source Y160F) above, with F159C counted along it
PtGSTU20C160Y (Populus trichocarpa; C160Y), sequence (chain, as listed by the source C160Y): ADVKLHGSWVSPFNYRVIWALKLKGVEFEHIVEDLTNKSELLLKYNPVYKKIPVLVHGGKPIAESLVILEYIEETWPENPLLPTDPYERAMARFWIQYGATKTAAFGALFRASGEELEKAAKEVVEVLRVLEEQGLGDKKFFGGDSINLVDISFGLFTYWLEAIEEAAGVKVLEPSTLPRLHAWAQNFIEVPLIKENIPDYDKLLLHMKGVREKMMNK
PtGSTU19Y160A (Populus trichocarpa; Y160A), sequence (chain, as listed by the source Y160A): as the sequence (chain, as listed by the source Y160F) above, with F159A counted along it

Substance: PtGSTU19Y160C (Populus trichocarpa; Y160C)
Km [1, 5]: 518.3 ± 57.6 µM
kcat [1, 5]: 0.050 ± 0.002 s⁻¹
kcat/Km [1, 5]: 0.100 ± 0.003 103M-1.s-1

Substance: PtGSTU19Y160F (Populus trichocarpa; Y160F)
Km [1, 6]: 693.2 ± 63.8 µM
kcat [1, 6]: 0.050 ± 0.002 s⁻¹
kcat/Km [1, 6]: 0.080 ± 0.003 103M-1.s-1

Substance: PtGSTU20 (Populus trichocarpa)
Km [2]: 329.2 ± 28.1 µM
kcat [2]: 0.02 ± 0.001 s⁻¹
kcat/Km [2]: 60 ± 3 M⁻¹ s⁻¹
Km (CCCCCC(O)C=CC=O): 30.6 ± 3.5 µM
kcat (CCCCCC(O)C=CC=O): 0.11 s⁻¹
kcat/Km (CCCCCC(O)C=CC=O): 3600 M⁻¹ s⁻¹
Km (S=C=NCCc1ccccc1): 56.8 ± 4.1 µM
kcat (S=C=NCCc1ccccc1): 5.1 s⁻¹
kcat/Km (S=C=NCCc1ccccc1): 88900 M⁻¹ s⁻¹
Km (S=C=NCc1ccccc1): 149.6 ± 17.6 µM
kcat (S=C=NCc1ccccc1): 10.4 ± 0.3 s⁻¹
kcat/Km (S=C=NCc1ccccc1): 69800 ± 2200 M⁻¹ s⁻¹

stoichiometry N [3]: 2
Substance: Populus trichocarpa tau glutathione transferase GSTU19 (PtGSTU19) (enzyme)

Substance: PtGSTU20C160Y (Populus trichocarpa; C160Y)
Km [1, 7]: 326.2 ± 67.6 µM
kcat [1, 7]: 0.020 ± 0.001 s⁻¹
kcat/Km [1, 7]: 0.060 ± 0.003 103M-1.s-1

Substance: PtGSTU19Y160A (Populus trichocarpa; Y160A)
Km [1, 8]: 534.6 ± 68.1 µM
kcat [1, 8]: 0.050 ± 0.002 s⁻¹
kcat/Km [1, 8]: 0.090 ± 0.004 103M-1.s-1

Substance: PtGSTU19 (Populus trichocarpa)
Km [2]: 443.5 ± 31.1 µM
kcat [2]: 0.04 ± 0.001 s⁻¹
kcat/Km [2]: 100 ± 2 M⁻¹ s⁻¹
Km (CCCCCC(O)C=CC=O): 56.4 ± 7.4 µM
kcat (CCCCCC(O)C=CC=O): 0.11 s⁻¹
kcat/Km (CCCCCC(O)C=CC=O): 2000 M⁻¹ s⁻¹
Km (S=C=NCCc1ccccc1): 48.4 ± 2.5 µM
kcat (S=C=NCCc1ccccc1): 3.8 s⁻¹
kcat/Km (S=C=NCCc1ccccc1): 79000 M⁻¹ s⁻¹
Km (S=C=NCc1ccccc1): 52.7 ± 3.6 µM
kcat (S=C=NCc1ccccc1): 7 ± 0.1 s⁻¹
kcat/Km (S=C=NCc1ccccc1): 132200 ± 200 M⁻¹ s⁻¹

stoichiometry N [4]: 2
Substance: Populus trichocarpa tau glutathione transferase GSTU20 (PtGSTU20) (enzyme)

— paper PMC9412104, “Biochemical and Structural Insights on the Poplar Tau Glutathione Transferase GSTU19 and 20 Paralogs Binding Flavonoids” (Frontiers in Molecular Biosciences, 2022)
